In patent US20110243962A1 (GENEURO, published 2011):

T1: MSRV complete ENV protein (ENV-T), recombinant from E. coli (MSRV (Multiple Sclerosis associated …))
T1 construct: also called ENV-T 7A; His-ENV-T
T1 chain: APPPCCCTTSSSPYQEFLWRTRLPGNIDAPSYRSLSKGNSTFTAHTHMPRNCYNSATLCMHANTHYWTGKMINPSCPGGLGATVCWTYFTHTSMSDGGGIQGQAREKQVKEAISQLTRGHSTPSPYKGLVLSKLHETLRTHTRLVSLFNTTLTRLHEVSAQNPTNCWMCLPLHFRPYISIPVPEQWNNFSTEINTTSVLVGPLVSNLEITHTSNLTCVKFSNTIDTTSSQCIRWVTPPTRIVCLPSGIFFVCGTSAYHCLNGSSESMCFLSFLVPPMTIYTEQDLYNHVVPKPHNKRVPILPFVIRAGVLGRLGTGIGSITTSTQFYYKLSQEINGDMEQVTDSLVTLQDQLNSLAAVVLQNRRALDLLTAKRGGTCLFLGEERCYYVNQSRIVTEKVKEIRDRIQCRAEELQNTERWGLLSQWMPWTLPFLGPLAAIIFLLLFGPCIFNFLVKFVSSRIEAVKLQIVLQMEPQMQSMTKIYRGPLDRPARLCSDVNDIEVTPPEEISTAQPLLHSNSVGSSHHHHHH

T2: MSRV ENV surface domain fragment (ENV-SU), recombinant from E. coli (MSRV (Multiple Sclerosis associated …))
T2 chain: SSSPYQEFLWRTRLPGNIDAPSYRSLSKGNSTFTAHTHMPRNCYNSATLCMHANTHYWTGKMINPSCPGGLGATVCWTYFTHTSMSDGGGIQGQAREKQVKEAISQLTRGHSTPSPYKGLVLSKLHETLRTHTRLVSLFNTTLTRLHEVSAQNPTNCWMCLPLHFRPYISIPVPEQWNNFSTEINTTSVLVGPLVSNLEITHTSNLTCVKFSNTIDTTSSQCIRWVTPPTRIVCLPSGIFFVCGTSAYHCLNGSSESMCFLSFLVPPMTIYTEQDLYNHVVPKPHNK


Tests used:
[1] = target: T1, MSRV complete ENV protein (ENV-T), …; experiment: ELISA; coated ENV-T 7A 0.0078; ligand 1 microgram
Experimental: (§1) II-1d Direct ELISA on Microplates Coated with ENV Antigen (ENV-T or ENV-SU as Described Above) [0159] Microwells were coated with 100 μl per well of ENV antigen diluted in 50 mM Sodium Bicarbonate, pH 9.6. Plate were sealed and incubated 2 hours at 37° C. under light agitation. [0160] Microwells were washed 4 times with 250 μl per well of PBS (Phosphate Buffer Saline). After the last, plates were inverted and blotted on absorbent paper to remove any residual buffer. [0161] 100 μl per well of detection antibody according to the present invention (GNbAC1 or its Fab fragment) diluted in PBS+BSA 1% (PBS with 1% of Bovine Serum Albumin) were added. Plate were sealed and incubated 1 hour at room temperature under light agitation. […] Microwells were washed 4 times with 250 μl per well of PBS. After the last, plates were inverted and blotted on absorbent paper to remove any residual buffer. [0163] […] Plate were sealed and incubated 1 hour at room temperature under light agitation. [0164] Microwells were washed 6 times with 250 μl per well of PBS. After the last, plates were inverted and blotted on absorbent paper to remove any residual buffer. [0165] 100 μl par well of Substrate Solution (1 tablet of o-Phenylenediamine (OPD) diluted in 10 ml of 0.05M Phosphate Citrate Buffer pH5+10 μl H2O2 30%, prepared at the last moment) were added. Plates were incubated 30 min at room temperature in the dark. […] 50 μl per well of Stop Solution 2N H2SO₄ were added. [0167] The absorbance was read at 490 nm within 30 minutes of stopping reaction.
(§2) Env-T antigen is coated onto microtiter ELISA plate wells with serial dilutions ranging from 1 μg/ml to about 0.01 μg/ml.

[2] = target: T1, MSRV complete ENV protein (ENV-T), …; experiment: ELISA; ENV-T 7A 1 ug/ml coated; mAb 0.5 ug/ml
Experimental: (§3) Protocol: Incubation 2 h at 37° C. […] Revelation is made by adding OPD substrate and reading optic density with a spectrophotometer after 30 min (Washing steps with PBS are performed between every step).

[3] = target: T1, MSRV complete ENV protein (ENV-T), …; experiment: ELISA; ENV 0.0156 ug/ml coated; mAb 1 ug/ml
Experimental: as §3

[4] = target: T1, MSRV complete ENV protein (ENV-T), …; experiment: ELISA; ENV-T 7A 1 ug/ml coated; mAb 0.03125 ug/ml
Experimental: as §3

[5] = target: T1, MSRV complete ENV protein (ENV-T), …; experiment: ELISA; ENV-T 7A 1 ug/ml coated; mAb 0.0156 ug/ml
Experimental: as §3

[6] = target: T1, MSRV complete ENV protein (ENV-T), …; experiment: ELISA; coated ENV-T 7A 0.0156; ligand 1 microgram
Experimental: as §1, §2

[7] = target: T1, MSRV complete ENV protein (ENV-T), …; experiment: ELISA; ENV 0.25 ug/ml coated; mAb 1 ug/ml
Experimental: as §3

[8] = target: T1, MSRV complete ENV protein (ENV-T), …; experiment: ELISA; ENV-T 7A 1 ug/ml coated; mAb 0.0625 ug/ml
Experimental: as §3

[9] = target: T1, MSRV complete ENV protein (ENV-T), …; experiment: ELISA; ENV 0.125 ug/ml coated; mAb 1 ug/ml
Experimental: as §3

[10] = target: T1, MSRV complete ENV protein (ENV-T), …; experiment: ELISA; ENV-T 7A 1 ug/ml coated; mAb concentration cell blank (top of series)
Experimental: as §3

[11] = target: T1, MSRV complete ENV protein (ENV-T), …; experiment: ELISA; ENV 0.0625 ug/ml coated; mAb 1 ug/ml
Experimental: as §3

[12] = target: T1, MSRV complete ENV protein (ENV-T), …; experiment: ELISA; coated ENV-T 7A 0.0625; ligand 1 microgram
Experimental: as §1, §2

[13] = target: T2, MSRV ENV surface domain fragment …; experiment: cell-based or functional assay

Binder	optical density [1]	optic density [2]	optic density [3]	optic density [4]	optic density [5]	optical density [6]	optic density [7]	optic density [8]	optic density [9]	optic density [10]	optic density [11]	optical density [12]	IFN-g at 72 h in PBMC culture with ENV-SU 0.5 ug/ml, MAb ratio 10/1 (no antibody: 336) [13]
GNbAC1 murine monoclonal antibody (IgG1/kappa) (antibody, V domains shown, Murine IgG1/kappa from hybridoma; also called murine IgG1; muIgG) VH: QVQLQQSGAELVRPGAPVTLSCKASGYTFTDYEMHWVKQTPVHGLEWIGAVAPETGGTAYNQKFKGKATLTAAKSSSTAYMELRSLTSEDSAVYYCTSTVVPFAYWGQGTLVTVSA VL: QIVLTQSPAIMSASPGEKVTISCSASSSVSYMYWYQQKPGSSPKAWIYRTSNLASGVPGRFSGSGSGTSYSLTISSMEAEDAATYYCQQYQSLPLTFGSGTKLEIK	0.625 OD	1.85 OD	0.186 OD	0.406 OD	0.166 OD	1.3 OD	1.42 OD	0.585 OD	0.975 OD	2 OD	0.837 OD	1.56 OD	–
Chimeric GNb AC1 IgG4 (human IgG4 constant regions with murine VH and VL) (antibody, V domains shown, also called GNbAC1 chimeric IgG4; GNbAC1-IgC4) VH: QVQLQQSGAELVRPGASVTLSCKASGYTFTDYEMHWVKQTPVHGLEWIGAVAPETGGTAYNQKFKGKATLTAAKSSSTAYMELRSLTSEDSAVYYCTSTVVPFAYWGQGTLVTVSA VL: QIVLTQSPAIMSASPGEKVTISCSASSSVSYMYWYQQKPGSSPKAWIYRTSNLASGVPGRFSGSGSGTSYSLTISSMEAEDAATYYCQQYQSLPLTFGSGTKLEIKR	0.692 OD	2.49 OD	0.71 OD	1.26 OD	0.777 OD	1.02 OD	2.3 OD	1.66 OD	1.56 OD	2.38 OD	1.55 OD	1.52 OD	384
Chimeric GNb AC1 IgG1 (human IgG1 constant regions with murine VH and VL) (antibody, V domains shown, Human IgG1 heavy constant region and human kappa constant region, made in CHO cells; also called GNbAC1 chimeric IgG1; Ligand in human IgG1) VH: QVQLQQSGAELVRPGAPVTLSCKASGYTFTDYEMHWVKQTPVHGLEWIGAVAPETGGTAYNQKFKGKATLTAAKSSSTAYMELRSLTSEDSAVYYCTSTVVPFAYWGQGTLVTVSA VL: QIVLTQSPAIMSASPGEKVTISCSASSSVSYMYWYQQKPGSSPKAWIYRTSNLASGVPGRFSGSGSGTSYSLTISSMEAEDAATYYCQQYQSLPLTFGSGTKLEIK	0.815 OD	2.54 OD	0.888 OD	1.98 OD	1.27 OD	1.26 OD	2.27 OD	2.51 OD	1.82 OD	2.54 OD	1.85 OD	1.8 OD	–
